Source: article doi:10.1101/2022.07.22.501097v1 (biorxiv, 2022)

Key:
BglC = molecular target: T1, BglC (Thermobifida fusca, UniProt Q9LAV5); experiment: 4-nitrophenol release at […] nm, continuous plate assay, non-linear regression; assay type: biochemical
T1 sequence (Q9LAV5 1-484): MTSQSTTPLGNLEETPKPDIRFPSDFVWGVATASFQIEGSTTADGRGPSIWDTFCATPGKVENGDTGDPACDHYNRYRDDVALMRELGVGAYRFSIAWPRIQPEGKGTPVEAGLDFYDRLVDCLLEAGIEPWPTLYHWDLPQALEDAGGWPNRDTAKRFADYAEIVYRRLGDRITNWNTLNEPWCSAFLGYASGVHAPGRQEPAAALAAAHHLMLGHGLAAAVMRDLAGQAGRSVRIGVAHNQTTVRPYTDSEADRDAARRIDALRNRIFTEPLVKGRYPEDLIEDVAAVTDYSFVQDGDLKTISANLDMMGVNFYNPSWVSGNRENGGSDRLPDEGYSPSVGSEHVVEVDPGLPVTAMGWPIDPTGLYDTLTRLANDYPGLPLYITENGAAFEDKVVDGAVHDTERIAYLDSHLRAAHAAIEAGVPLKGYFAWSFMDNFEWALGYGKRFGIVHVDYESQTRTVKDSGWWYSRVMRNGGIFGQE

purified protein = substrate: O=[N+]([O-])c1ccc(O[C@@H]2O[C@H](CO)[C@@H](O)[C@H](O)[C@H]2O)cc1; experiment: purified protein; conditions: 100 mM sodium phosphate pH 7.0, 37 °C, 2.63 nM enzyme

O=C1O[C@H](CO)[C@@H](O)[C@H](O)[C@H]1O [D-glucono-δ-lactone]
Ki (BglC): 6.63 ± 1.3 µM

B1: BglC (Thermobifida fusca) (protein)
chain: MTSQSTTPLGNLEETPKPDIRFPSDFVWGVATASFQIEGSTTADGRGPSIWDTFCATPGKVENGDTGDPACDHYNRYRDDVALMRELGVGAYRFSIAWPRIQPEGKGTPVEAGLDFYDRLVDCLLEAGIEPWPTLYHWDLPQALEDAGGWPNRDTAKRFADYAEIVYRRLGDRITNWNTLNEPWCSAFLGYASGVHAPGRQEPAAALAAAHHLMLGHGLAAAVMRDLAGQAGRSVRIGVAHNQTTVRPYTDSEADRDAARRIDALRNRIFTEPLVKGRYPEDLIEDVAAVTDYSFVQDGDLKTISANLDMMGVNFYNPSWVSGNRENGGSDRLPDEGYSPSVGSEHVVEVDPGLPVTAMGWPIDPTGLYDTLTRLANDYPGLPLYITENGAAFEDKVVDGAVHDTERIAYLDSHLRAAHAAIEAGVPLKGYFAWSFMDNFEWALGYGKRFGIVHVDYESQTRTVKDSGWWYSRVMRNGGIFGQE
Km (purified protein): 560 ± 10 µM
kcat (purified protein): 48.68 s⁻¹
